# Experimental data from the DeepSol protein solubility set.
# Assay: soluble on expression in E. coli; label from the status in PepcDB or PDB records
row,Sequence,soluble on expression in E. coli
1,MRLTIPILKEGGMLMKFGFIGAGKVGFSLGKYLADNNQNVVGYYSIINEEAIEAAKFTGSKYYENMEQLVEDSEVLFLTVPDGQIENLWNQLKSSHKNWMAKYNKPLLNNKIVCHCSGALSSDIFSSIAEYESFGYSIHPLFAVSNRYESYKELSDSYFTIEGNIEKINKMKELFESFGNTVCIISKDDKIKYHGAAAIASNLVVGLIGLSEELLKQCGFDEKSAHNALAPIIKGNVKHIVEEGVVEALTGPIERCDVSTVRKHMSVFDKKTNEIYKAVSKEVLEIAKIKNKDRDYSKMEEVLQ,not soluble
2,EAQIYGYVEKATLIDQNLTLSAKLDTGAKSASLHAVNITEIEKKGIPYLRFTVPTKTGDYSFEGEYVGKVKIKVRSSETNPGLLRTTPIKRPVVLLNIKLGDKVRTIKVNLTNRKRFLYPLLLGRDAIIDFNGAVDPALTFTTKSK,not soluble
3,MGSSHHHHHHSSGLVPRGSHMSRAYDLVVLGAGSGGLEAGWNAAVTHKKKVAVVDVQATHGPPLFAALGGTCVNVGCVPKKLMVTGAQYMDLIRESGGFGWEMDRESLCPNWKTLIAAKNKVVNSINESYKSMFADTEGLSFHMGFGALQDAHTVVVRKSEDPHSDVLETLDTEYILIATGSWPTRLGVPGDEFCITSNEAFYLEDAPKRMLCVGGGYIAVEFAGIFNGYKPCGGYVDLCYRGDLILRGFDTEVRKSLTKQLGANGIRVRTNLNPTKITKNEDGSNHVHFNDGTEEDYDQVMLAIGRVPRSQALQLDKAGVRTGKNGAVQVDAYSKTSVDNIYAIGDVTNRVMLTPVAINEGAAFVETVFGGKPRATDHTKVACAVFSIPPIGTCGMTEEEAAKNYETVAVYASSFTPLMHNISGSKHKEFMIRIITNESNGEVLGVHMLGDSAPEIIQSVGICMKMGAKISDFHSTIGVHPTSAEELCSMRTPAYFYESGKRVEKLSSNL,soluble
4,GMTRSEAQGRLTGLAPVSVIDIGSNSVRLVVYEGLSRAPAVLFNEKVLCGLGKGLALTGRMHEEGVTRALMALRRFHVLSEQAQAQKLYVLATAAAREAENGPDFIREAEAILGCEIEVLSGEKEALYSAYGVISGFYQPDGIAGDLGGGSLELIDIKDKSCGEGITLPLGGLRLSEQSDGSLEKAATIARKHVKSFAKLLAAGEGRTFYAVGGTWRNIAKLHMEISGYPLHMMQGYELPLEEMLNFLEEVIVSRDSKDPAWQAVSKNRRSLLPFGAIAMREVLRAMKPAKIAFSAQGVREGYLYSLLTEAERESDPLLVAADELAILRARSPEHARELADWSGRTFPVFGIDETEEESRYRQAACLLADISWRAHPDYRGLQALNIIAHSSFVAITHPGRAYIALANYYRFEGLNDNGTTEPLAAMAGERLQELGKLLGGLLRVVYLFSASMPGVVDHLKFRKSDNPDIDLEFVVPHDYCDFAGERLDGRLQQLAKLTGKRLAFVFE,soluble
5,AIASTMVYPREERLEKLTQDEIISSTKLVIQGLEALKSEHNSILQSLLETIQCLKKDEEASLVHEKSSLLRKSVEMIELGLGEAQVMMALSNHLNAVESEKQKLRAQVRRLCQENQWLRDELANTQHKVQKSEQSVAQLEEEKKHLEFMNQLKKYDDGATPEVSPHNDMHRDVSLSVRQLKRLRESK,soluble
6,SRRSLRAGKRRQTAGRKSKSPPKVPIVIQDDSLPAGPPPQIRILKRPTSNGVVSSPNSTSRPTLPVKSLAQREAEYAEARKRILGSASPEEEQEKPILDRPTRISQPEDSRQPNNVIRQPLGPDGSQGFKQRR,soluble
7,MSLSDINNMAYGISDMLGSIDNLAMFDLVVPHFRGKENECLFGMFGRATTTLQGGKIAKHVQEIFAETLTAHLHKLEPGEEPSEALRRTFLWGDRKAFEFFSGKLQLEKERKPSWTSFASFDSMFRGWTPGVNSVLRTGASGAVVYLVDKVLHVGSIGDTLVVLSRKGDAELLSKRHDPTDREESARIRKAEAWVSTKGFVNDDKDLDISRAFGYWHECPAVNAAPEIRTRRLQESDEFVIIGNHALWQFCSYQTAVDIARTERDDPMIAAQKLRDFAISYGAEGNVMVMVVNVSDLFLGKEGHHHHHH,not soluble
8,MKSSPKSLKMRDNLLDGTFVVIDLEATGFDVEKSEVIDLAAVRVEGGIITEKFSTLVYPGYFIPERIKKLTGITNAMLVGQPTIEEVLPEFLEFVGDNIVVGHFVEQDIKFINKYTKQYRGKKFRNPSLCTLKLARKVFPGLKKYSLKEIAENFGFETNGVHRALKDATLTAEIFIKILEELWFKYGIGDYYSLKRLEKGKF,soluble
9,QPKPEEKLTNNIILKKLQIALNLKADEVLDLLKLVNFRLSKHELSAFFRKPDHKHYRVCKDQVLRNFLQAVQQNLRG,not soluble
10,MAHHHHHHMNVAKREFIRGMMAHYRASLPPPEHSVVIHELQKRVLDIGMLAVNKAHVELFGSHVSGFCTPHSDADISLTYRNFSPWLQGMERVDEQNNKRMTRFGKEASAMGMEDVRYIRARIPVVQFTDGVTGIHCDVSIGNIGGVENSKILCAIRQVFPDFYGAYIHLVKAWGKAREVIAPERSTFNSFTVTTMALMVLQELGLLPVFSKPTGEFGELTVADAEMLLQEFKLPPIYDSLHDDDEKLGEAVFFCLQRFAEYYAKYDFSAGTVSLIHPRRHRTVYERVVRRHLELLGSRKRLEWEKHIAEHKEDGPLDENDFSASMQNETTQRPSNSPYVVEDFVNYVNCGRRVQASRVRHIQQEFNRLREMLIDKESELKFDEVFRESDTVPRFQGFEGVGTRDHRVKTFRPQ,not soluble
11,GPGSMNRDPDNGLWYATLRGRTLLGEEVQLPESGIVGMTTVTTSKPSCSPFPTPASLSTFPPQIAEVGELEMVDEVFIEACAPRYVVWDHGRAPSPAASLLQWMMLAEVLHGPSKWAQGEGDTSL,not soluble
12,MRLVYGLGRSGLGVLRFLRKRGLPARFYDDRPREEEVREALALGFQPDWNLEEAYEEVVAAPGVPLDHPHLKRLAARGAKVLGEAELAYRLSPTPIVGITGTAGKTSTTLFTAHLLRAHGLRAREGGNVDPPLVSVVDEAEVAVAELSSFQLERVHAFRPRVAVLLNLGVDHLDRHGTVEAYHAAKLNLLKNLTPEDALVYNRLDPKVRRAAEASPARLYPFTPGSTPRETNLRAVLEATRAYLDLLGRPLDPGAVAEALRTLPEAPHRFQAFARKGGVVFIDDSIATRTEAVRAALEAVPAPIAWILGGEDKGADLAPLLPLLGRVRVALALGRDGPRFARALEGRTEVVVIAEKDGRTAMRKAVEEALSRLEQGSVLLAPLAASFDQFRDYKDRAQAFREAVFALGGEPWTPSSS,soluble
13,MSLDDLWQTLPDPAELVTVGDLRGMIHTHSTWSDGGASIREMAEATLTLGHEFLGTADHSRAAYYANGLTIERLREQLKEIRELQRAGLPIVAGSEVDILDDGSLDFPDDVLGELDYVVVSVHSNFTLDAARQTERLIRAVSHPLVTVLGHATGRLLLRRPGYALDLDAVLGACEANGTVVEINANAARLDLDWREALRWRERLKFAINTDAHVPGGLRDARYGVMQARKAGLTPAHVVNSLGRAEFLDFVARQRAARGAPGPADREGHHHHHH,not soluble
14,TFGPVFEDQPLSVLFPEESTEEQVLLACRARASPPATYRWKMNGTEMKLEPGSRHQLVGGNLVIMNPTKAQDAGVYQCLASNPVGTVVSREAILRFGFLQEFSKEERDPVKAHEGWGVMLPCNPPAHYPGLSYRWLLNEFPNFIPTDGRHFVSQTTGNLYIARTNASDLGNYSCLATSHMDFSTKSVFSKFAQLNLAAEDTRLFAPSIKARFPAETYALVGQQVTLECFAFGNPVPRIKWRKVDGSLSPQWTTAEPTLQIPSVSFEDEGTYECEAENSKGRDTVQGRIIVQAQPEWLKVISDTEADIGSNLRWGCAAAGKPRPTVRWLRNGEPLASQNRVEVLAGDLRFSKLSLEDSGMYQCVAENKHGTIYASAELAVQA,soluble
15,KTFAALGSGVIGSGWIARALAHGLDVVAWDPAPGAEAALRARVANAWPALRKQGLAPGAAQERLRFVASIEECVGDADFIQESAPERLDLKLDLHARISAAARPDVLIGSSTSGLLPSEFYAEASHPERCLVGHPFNPVYLLPLVEVVGGERTAAEAVRAAMRVYESLGMRPLHVRKEVPGFIADRLLEALWREALHLVNDGVATTGEIDDAIRFGAGLRWSFMGTFLTYTLAGGNAGMRHFMAQFGPALQLPWTYLPAPELTEALIDRVVEGTAEQQGARSIAELERYRDDCLLAVLGAIRETKARHGFA,not soluble
16,QSELTQPRSVSGSPGQSVTISCTGTSRDVGGYNYVSWYQQHPGKAPKLIIHDVIERSSGVPDRFSGSKSGNTASLTISGLQAEDEADYYCWSFAGSYYVFGTGTDVTVLGQPKANPTVTLFPPSSEELQANKATLVCLISDFYPGAVTVAWKADGSPVKAGVETTKPSKQSNNKYAASSYLSLTPEQWKSHRSYSCQVTHEGNTVEKTVAPT,soluble
17,MGKEKSHINVVVIGHVDSGKSTTTGHLIYKCGGIDKRTIEKFEKEAAELGKGSFKYAWVLDKLKAERERGITIDIALWKFETPKYQVTVIDAPGHRDFIKNMITGTSQADCAILIIAGGVGEFEAGISKDGQTREHALLAFTLGVRQLIVAVNKMDSVKWDESRFQEIVKETSNFIKKVGYNPKTVPFVPISGWNGDNMIEATTNAPWYKGWEKETKAGVVKGKTLLEAIDAIEQPSRPTDKPLRLPLQDVYKIGGIGTVPVGRVETGVIKPGMVVTFAPAGVTTEVKSVEMHHEQLEQGVPGDNVGFNVKNVSVKEIRRGNVCGDAKNDPPKGCASFNATVIVLNHPGQISAGYSPVLDCHTAHIACRFDELLEKNDRRSGKKLEDHPKFLKSGDAALVKFVPSKPMCVEAFSEYPPLGRFAVRDMRQTVAVGVIKSVDKTEKAAKVTKAAQKAAKK,soluble
18,MAHHHHHHMANDDPKEPQPAVLNPEVDQQDTSVNGDDGDAERDGGKDVPVFTPAGARVEVHPLVLLSLVDHYARVNAKVSQKRRVAGLLLGRHLSHPGGIQVLDINNSFAVPFDEDPQNPDVWFLDTNYAEEMFLMFRRVHPKVRIVGWYSAGPSCAVQPNDMLLHLLIADRFSLNPVYCIVNTDPNNKGVPVLAYTTVHGRDGARSLEFRNIPTHLGAEEAEEIGIEHLLRDLTDSTITTLSAQVQERELSLDHLGRVLQSIEEYLNDVAEGTMPISEDVLSVLQEVISLQPHIYHLKTSTDMVRHANDQAIAMFIAAIGRCVCTLYDVIANRRRIAREIQEVRARRERSLKEKLGNEQHKAKEAATEESRKEGAAKN,not soluble
19,MSACAPVHRDPPAPASLRAMPGARWLSGVVLGGLSLGLMACGPKDIEGLRTADYLGGDQRSGVLTYRETPPMGGPYNPLWQTCAAYAQPVYNEYAVHSLARGAVWVTYRPGLDAAELDKLKALLAGQPAALLSPYPNLPAPVVMTAWNRQLSAQTADDPRLTRFLKEILPENSAPEKGSPCARGFGGTR,soluble
20,MNRTIDRSVPKLGVRSTRQRTAVVGVLKDLDYFASAKVIHQELTKRDLKVGLTTVYRTLQSLSEIEAVDVLHMSNGETLYRHCLSDEHHHHLVCTECGRTVEIDGGPVEKWAKEVAQLHGFQVTGHDAEIYGLCESCSAATE,not soluble
